Here are results for 47 sequences from the supplement of paper PMC10567573.

A short description of this series: protein stability index of a GFP-peptide fusion (GPS, HEK-293T) (PSI 1-6); higher = more stable. Particulars: c terminus: a fixed tail appended.

± gives the standard deviation.
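Note: 24-mer peptide tiles fused after GFP, lentivirally expressed, FACS-sorted into six equal bins by GFP/DsRed ratio, decoded by Illumina sequencing, PSI is the read-weighted mean bin number.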

On to QLLYSPIENIQRVAAGVLCELAQD [CTNNB1], for which the protein stability index by setting is: (treatment: DMSO) 2.29 ± 0.24; (treatment: MLN4924 1 uM, 8 h) 2.27 ± 0.27.

For the sequence SRRPLDEAVAGAEGREAPALVAAG [DENND6A], the protein stability index was found to be 4.86 ± 0.35 (treatment: DMSO) and 5.19 ± 0.25 (treatment: MLN4924 1 uM, 8 h).

As to KEILRTLQDVFCWLPLATLIDEKV [PPEF2], the protein stability index (treatment: DMSO) is 2.46 ± 0.25 and the protein stability index (treatment: MLN4924 1 uM, 8 h) was found to be 3.03 ± 0.57.

In the case of PGAPRGNPPKASAAPDCTPSLEAG [MYCL], the protein stability index (treatment: DMSO) is 5.28 ± 0.34 and the protein stability index (treatment: MLN4924 1 uM, 8 h) came out at 5.36 ± 0.17.

For CYRSQDYGGRSVAPQNSFSAKLAP [KCNK9], the protein stability index was 3.04 ± 0.092 (treatment: DMSO) and 3.19 ± 0.36 (treatment: MLN4924 1 uM, 8 h).

For RSQSSIVPEEEQAANKGEEKKDDE [SMARCE1], the protein stability index is, setting by setting: (treatment: DMSO) 5.63 ± 0.25; (treatment: MLN4924 1 uM, 8 h) 5.68 ± 0.14.

Regarding RHCDDDGRTENGALAPKQELPSAL [ZNF24], the protein stability index was 5.25 ± 0.22 (treatment: DMSO) and 5.15 ± 0.21 (treatment: MLN4924 1 uM, 8 h).

YFRDLPEPLMTNKLSETFLQIYQY [DLC1] showed a protein stability index (treatment: DMSO) of 2.37 ± 0.32 and a protein stability index (treatment: MLN4924 1 uM, 8 h) of 2.26 ± 0.24.

For WRRSGKYVYKPVMNQTCCPQYTIR [ATE1], the protein stability index worked out at 2.03 ± 0.22 (treatment: DMSO) and 2.32 ± 0.32 (treatment: MLN4924 1 uM, 8 h).

In the case of VGKTRLICARACNATLTQYQLLAT [RHOBTB2], the protein stability index reads like this: (treatment: DMSO) 2.28 ± 0.34; (treatment: MLN4924 1 uM, 8 h) 2.17 ± 0.31.

For IVIADVKLVADFQRYILYWRKRFT [ZNF277], the protein stability index by setting is: (treatment: DMSO) 2.48 ± 0.57; (treatment: MLN4924 1 uM, 8 h) 2.48 ± 0.46.

For FPSAGQAQAAVQGPVGTDFKPLNS [ZNF207], the protein stability index reads like this: (treatment: DMSO) 3.67 ± 0.45; (treatment: MLN4924 1 uM, 8 h) 4.16 ± 0.4.

Turning to NIQETHRLYRLKLEELTKLQNNCT [TMEM120A], the protein stability index was 2.92 ± 0.19 (treatment: DMSO) and 3.08 ± 0.29 (treatment: MLN4924 1 uM, 8 h).

With FISRTSIPNAASEEGDEDDWASNK [WEE1], the protein stability index was 4.3 ± 0.32 (treatment: DMSO) and 4.73 ± 0.31 (treatment: MLN4924 1 uM, 8 h).

In the case of IYQGEDLPHPKSMLQATAEANNLA [ATL3], the protein stability index was found to be 4.25 ± 0.23 (treatment: DMSO) and 4.332 ± 0.041 (treatment: MLN4924 1 uM, 8 h).

For the sequence LGKLPPQYALELLTVYAWERGSMK [OAS1], the protein stability index is, setting by setting: (treatment: DMSO) 2.31 ± 0.61; (treatment: MLN4924 1 uM, 8 h) 2.36 ± 0.41.

As for PGGGRGALLDQIRQGIQLNKTPGA [WAS], the protein stability index (treatment: DMSO) came out at 5.3 ± 0.1 and the protein stability index (treatment: MLN4924 1 uM, 8 h) is 4.99 ± 0.47.

TLVNFHLKRSIPQVSPVRRAPSRR [CPN1]: the protein stability index by setting is: (treatment: DMSO) 2.88 ± 0.28; (treatment: MLN4924 1 uM, 8 h) 3.13 ± 0.23.

For the sequence GYNPDYDESGGPDNEDYPLFRELW [KLHDC10], the protein stability index reads like this: (treatment: DMSO) 3.37 ± 0.36; (treatment: MLN4924 1 uM, 8 h) 3.47 ± 0.18.

For the sequence TGKAPSPRAAHACATVGNRGFVFG [KLHDC2], the protein stability index is 2.38 ± 0.11 (treatment: DMSO) and 2.21 ± 0.19 (treatment: MLN4924 1 uM, 8 h).

Regarding MIRESETKKGFYSLSVRHRQVKHY [SLA], the protein stability index was 2.59 ± 0.44 (treatment: DMSO) and 2.94 ± 0.13 (treatment: MLN4924 1 uM, 8 h).

As for SAPLQGAVPPTSSVPPVAGAPSVG [SNAP91], the protein stability index is 4.91 ± 0.19 (treatment: DMSO) and 4.99 ± 0.081 (treatment: MLN4924 1 uM, 8 h).

On to SGLVRRLWRSRVVPDREEGGSGGG [SMAD6], for which the protein stability index turned out to be 3.91 ± 0.6 (treatment: DMSO) and 4.33 ± 0.36 (treatment: MLN4924 1 uM, 8 h).

Sequence GTAITSQYLAERYKVNTPMLQSFI [SLC35F2] registered a protein stability index (treatment: DMSO) of 2.58 ± 0.57 and a protein stability index (treatment: MLN4924 1 uM, 8 h) of 2.26 ± 0.38.

On to LHDCAESGSLEILQLLLGCKARME [FEM1A], for which the protein stability index was 2.41 ± 0.31 (treatment: DMSO) and 2.52 ± 0.29 (treatment: MLN4924 1 uM, 8 h).

In the case of NCSIGPNVSLGPGVVVEDGVCIRR [GMPPB], the protein stability index (treatment: DMSO) was 4.29 ± 0.3 and the protein stability index (treatment: MLN4924 1 uM, 8 h) was 4.393 ± 0.043.

EKHCEFKQLALDHFKKTKKMGGKD [ATL3] registered a protein stability index (treatment: DMSO) of 4.64 ± 0.14 and a protein stability index (treatment: MLN4924 1 uM, 8 h) of 4.57 ± 0.39.

MTSMSAELKMRAIQAEERLDMEKR [LRRC45] returned a protein stability index (treatment: DMSO) of 4.65 ± 0.19 and a protein stability index (treatment: MLN4924 1 uM, 8 h) of 4.9 ± 0.16.

As to EYVAIKLEPMKSRAPQLHLEYRFY [CSNK1G3], the protein stability index (treatment: DMSO) is 3.3 ± 0.41 and the protein stability index (treatment: MLN4924 1 uM, 8 h) was found to be 2.93 ± 0.64.

On to NPLIASSFSLVKLVLRRQLKNKCC [C22orf31], for which the protein stability index was determined as 2.25 ± 0.35 (treatment: DMSO) and 2.18 ± 0.32 (treatment: MLN4924 1 uM, 8 h).

Take FKHILRTEGAFGLYRGLAPNFMKV [SLC25A25]: the protein stability index reads like this: (treatment: DMSO) 2.18 ± 0.31; (treatment: MLN4924 1 uM, 8 h) 2.29 ± 0.32.

As to ELETVDFKDKLEETKGQINNSIKD [SERPINB5], the protein stability index was 5.29 ± 0.46 (treatment: DMSO) and 5.51 ± 0.12 (treatment: MLN4924 1 uM, 8 h).

For the sequence VRERDRLGNEYPKLHYPELYVLKG [CDC25A], the protein stability index turned out to be 2.62 ± 0.21 (treatment: DMSO) and 2.75 ± 0.12 (treatment: MLN4924 1 uM, 8 h).

Turning to SDSGDGVYAGRPLSVIQMVAFLEQ [FBXO34], the protein stability index was found to be 2.92 ± 0.15 (treatment: DMSO) and 3.02 ± 0.34 (treatment: MLN4924 1 uM, 8 h).

Regarding RLCFFPFVENGHSESSGQTHLEGD [CFHR2], the protein stability index (treatment: DMSO) was 4.01 ± 0.099 and the protein stability index (treatment: MLN4924 1 uM, 8 h) was determined as 4.37 ± 0.15.

With LYLNLALHLASDFFLKHPDKDVRL [PDS5B], the protein stability index by setting is: (treatment: DMSO) 2.73 ± 0.41; (treatment: MLN4924 1 uM, 8 h) 3.29 ± 0.27.

Turning to SLSAGEKPGFLAPRDLPKHTPLIS [RASAL3], the protein stability index was 3.56 ± 0.23 (treatment: DMSO) and 3.65 ± 0.32 (treatment: MLN4924 1 uM, 8 h).

Turning to AWFGFAGTPGYLSPEVLRKDPYGK [CAMK2A], the protein stability index by setting is: (treatment: DMSO) 2.46 ± 0.2; (treatment: MLN4924 1 uM, 8 h) 2.88 ± 0.34.

For the sequence DEVQIGPETVMTTLYTAKKYAVPA [BTBD1], the protein stability index runs as follows: (treatment: DMSO) 3.67 ± 0.32; (treatment: MLN4924 1 uM, 8 h) 3.55 ± 0.41.

For QQLYYTEADYEDDSKIAFLMQLQD [IQUB], the protein stability index is, setting by setting: (treatment: DMSO) 3.45 ± 0.54; (treatment: MLN4924 1 uM, 8 h) 3.48 ± 0.51.

On to YFYLGGARGAGPPEPLRICPLHIS [TRIM35], for which the protein stability index is 2.44 ± 0.28 (treatment: DMSO) and 2.04 ± 0.32 (treatment: MLN4924 1 uM, 8 h).

For the sequence NDFGVFLCKLFPFLQKSSVGITVL [EDNRA], the protein stability index by setting is: (treatment: DMSO) 2.88 ± 0.52; (treatment: MLN4924 1 uM, 8 h) 3.26 ± 0.73.

For LIESEAPPKASEQETAKEEDGSVE [C18orf25], the protein stability index was 5.59 ± 0.31 (treatment: DMSO) and 5.77 ± 0.26 (treatment: MLN4924 1 uM, 8 h).

Turning to DAAYRKALDLAREFLPQGPVAMRV [AUH], the protein stability index (treatment: DMSO) came to 2.25 ± 0.64 and the protein stability index (treatment: MLN4924 1 uM, 8 h) turned out to be 2.19 ± 0.33.

As to GIGDMAFEGDMGAAGGDGELGSPL [PSD2], the protein stability index was found to be 5.37 ± 0.25 (treatment: DMSO) and 5.46 ± 0.16 (treatment: MLN4924 1 uM, 8 h).

With KEEAQAEIEQYRLQREKEFKAKEA [ATP6V1G1], the protein stability index by setting is: (treatment: DMSO) 5.5 ± 0.21; (treatment: MLN4924 1 uM, 8 h) 5.58 ± 0.38.

In the case of QGEGPEAGDAEVCPTPARLATTEK [NOP53], the protein stability index was determined as 5.46 ± 0.27 (treatment: DMSO) and 5.44 ± 0.19 (treatment: MLN4924 1 uM, 8 h).
